# In the DeepSol protein solubility set:
# Assay: soluble on expression in E. coli; label from the status in PepcDB or PDB records
row,Sequence,soluble on expression in E. coli
1,MSLNSQGYAVVDFETTGLSPAKGDRAIEIGLVHVAPDGTLEDEHETLIHVDRSVGASWVHHITARELLHAPDFEGIAHELRDLLAGRVFVAHNVSFDSRFLLAEYSRMGASIPVDQSTMLCTMKLSRSLIGRGKLADCCEYFGIANEDAHSALSDAHATAILLGRLLEADPKWPGFQRRLDAAGAAAEQWPTEGHHHHHH,not soluble
2,MRIDFGAGDEISFIKKGHAGVIKLARSSALNALNGRMVSALKKALSVWETDDDVSCVLIEGEGRAFCAGGDVVEIYHMEEKISSYQYFNDEYRLNAYIKHFRKPYISFLNGIWMGGGVGISIYGSHRIVTENTLFAMPESAIGFFPDVGASFFLPSLPDHFGIYLALTGARIKWGDCLNLGLATHAVPEIELECIRKAIIEQGNPQLALEEHAITKDYETSHEIRSVINACFGTHTLEECMELLYKKSNEGLFFARECYDILQSRSPTSLKVIWKQMKQNSSQTLEECMKIENRIAHHMINSHDFREGVRAMLIDKDKTPKWQPDKLSNITDEMIDAYFQPVEKELLF,not soluble
3,MLPEHLVSSHFRLSSPPPEATENSKNLPKGKTKLSDYEPDILISANAAGQHRNVLFEERDRHIKERLYCVAKIETFARLINALQAEGDIDAQTLSKILADKTAMINEKGNAIWLNLITRETDMPLFYSLEDKDERS,not soluble
4,MKVNKALTIAGSDSGGGAGIQADLKTFQELGVYGMTAITAITAQNTLGVQGVYPVSLEGITEQLNSIGTDLTPDAVKIGMLFSSEIIQIVAEYINKFGWNNIVLDPVMIAKGGASLLQQEAVQALKEYLLPVATVITPNVPEAEVLTGLEIHNIEDSKEAAKVLHELGAKYVLMKGGHAEYQGNEVIDLLFDGEKFIEFRSERIPSKQTHGSGCTFASAVTAGLAKGYSMEEAVQEAKRFISIAIEEPLHIGSGHGPTNHFAYKMNKAQV,not soluble
5,GMIQVPASFDIQGHRGCRGLLPENTIAAFTKALLLGVTTLEFDLVISKDNRVVVSHDTFFHHEITMMVDGEDVTEANEKNFNLYAMNYADIKEIDVGMKTHPRFKSQKKVPAVKPLFRELIETAEKLSAKIQYNGEIKSTVEGDNIDHPNIALFCDLVVAEIKKAHITDRFTLQSFDVRALEYMHSQYPDIKLSYLVETKGTLKKQLEKLSFTPAVYSPDVTLVSKKDIDAAHKLGMRVIPWTVNTKEEIETLISLGVDGIITDYPDLFFEK,soluble
6,RRVADEIVISHPELADEVDTVCNKIQAGKPMPESLRELVVRTGLEELMGLVSMLSHASRIGGSLVNSLREYTEDYRDKRQQAAEEIAAKIPVK,not soluble
7,MSSALTDLFPLPIVQAPMAGGVSVPQLAAAVCEAGGLGFLAAGYKTADGMYQEIKRLRGLTGRPFGVNVFMPQPELAESGAVEVYAHQLAGEAAWYETELGDPDGGRDDGYDAKLAVLLDDPVPVVSFHFGVPDREVIARLRRAGTLTLVTATTPEEARAVEAAGADAVIAQGVEAGGHQGTHRDSSEDDGAGIGLLSLLAQVREAVDIPVVAAGGIMRGGQIAAVLAAGADAAQLGTAFLATDESGAPGPHKRALTDPLFARTRLTRAFTGRPARSLVNRFLREHGPYAPAAYPDVHHLTSPLRKAAAKAGDAQGMALWAGQGHRMARELPAGRLVEVLAAELAEARTALSDASRENESRKGHHHHHH,soluble
8,MGSDKIHHHHHHMVYPVKDIQSVRDLALLAIRNKVSLEQQVETLGFESETYDYSSLLADLKVLPPLDHPDPTHCLISGTGLTHLGSASARDKMHQQNLSNDSSVTDTMRIFQWGLQKGRPAEGQIGAQPEWFYKGDGSIVVRPGAELPLPPFAEDGGEEPEIAGLYVIGEDLKPYRIGFALGNEYSDHVMERRNYLYLAHSKLRFCSFGPALRTGELPKHLVGTSRLRRDGQIIWEKEFLSGEDNMCHSLANLEYHHFKYQQFLKAGDVHIHYFGTATLSFADGIQAQVNDEFEIEMKEFGHPLKNKLAHMQPELPIGSVITL,not soluble
9,MTGQPSTPVRPGSVVRTVRRHRGGRSATVQDMVAAEMPVAFNYNGVPFAVMMATPEDLEDFALGFSLSEGIVDHPQDLRVVAVDTFLEGASLQIEIPPERAAALDQRRRNLDGRSGCGVCGNESIEAVLRVPPVLQSALRIDVDALARALDALHARQPIAAQTGAVHAAGWADAQGMVQLVREDVGRHNALDKLIGALARARVDATQGFAVVTSRASYEMAMKAAQARIPLLAAISAPTALAISLADSAGLTLIGFARDHDCVVYSHPQRLDLGVAVGEPALEHHHHHH,not soluble
10,GMSAGKTVVIALGGNAMLQAKEKGDYDTQRKNVEIAASEIYKIHKAGYKVVLTSGNGPQVGAIKLQNQAAAGVSPEMPLHVCGAMSQGFIGYMMSQAMDNVFCANNEPANCVTCVTQTLVDPKDQAFTNPTKPVGRFYTEQEAKDLMAANPGKILREDAGRGWRVVVPSPRPLEIVEYGVIKTLIDNNVLVICTNGGGIPCKRENKVISGVDAVIDKDLATSLLAKTLNSDYLMILTDVLNACINYKKPDERKLEEIKLSEILALEKDGHFAAGSMGPKVRAAIEFTQATGKMSIITSLSTAVDALNGKCGTRIIKD,soluble
11,MQGPPRFGRLGGGAARRAARAQAPLYQEQPNYRDLVELAAEQARQAAAAPPPQLVPMLRDPIPIRFHRRDELLDRFGMDLGVAHRQELPNERIELAEARDQLAEQQRRALEAQRDQLARHNALADDLRARRERIVQEARAHARRADARDARLEAAAAADRRERFLQEAQEADARRAADGDARAELGEQLRALEAAVAGLPEAQAPQLRDRRARFVARLRARRAADAQAGALANEQRALEARLEGDFADLRAAEGRLLHPPPPQVCEFFFFAHFLLKMRKNLENLSQKLRFEVENWKIPLKFEICEILWKNHENCSKKR,not soluble
12,MGSDKIHHHHHHMKTKHILFGIFISSAVTSCNSIKGSGNVVTSIRPVQEFSGIISSGSFNMYLTQSAVQEVKIIADDNVLQYIETNVRDGILTVTFKDKVHIKNSTRLDIYVSGPVIEKINLEGSGNIQTTNRLHSNNLVLVLNGSGKMVAEDACETAIVQLNGSGNITLTGKAKNQTASVSGSGNVNASGFTTENTTASLSGSGSIGLYATESLHASLSGSGSIRYSGNPASVKKEVSGSGMVESR,not soluble
13,MSLTKNNISFYVVDASEELTMNIKEASEKSGVSADTIRYYERIGLIPPIHRNESGVRKFGAEDLRWILFTRQMRRAGLSIEALIDYLALFREGEHTLEARAELLKKQRIELKNRIDVMQEALDRLDFKIDNYDTHLIPAQEELKDFNVERSNEGHHHHHH,soluble
14,MGSDKIHHHHHHMAHPLSRIIDQLKREPSRTGSIVITVFGDAIVPRGGSVWLGTLLEFFESLDIDSGVVRTAMSRLAADGWLTREKVGRNSFYRLADKGHQTFEAATRHIYDPPPSDWTGRFELLLINGEDRDASREALRNAGFGSPLPGVWVAPSGVPVPDEAAGAIRLEVSAEDDSGRRLLSASWPLDRTADAYLKFMKTFEPLRTAIGRGTTLSDADAFTARILLIHHYRRVVLRDPLLPESLLPADWPGRAARELCGEIYRALLAPSEQWLDGHGTNEKGPLPAARKLLERRFGA,not soluble
15,MVSFTKDQIADIIRKVGDGTSPEALESAVRNVLAKLQSEGLSAPASQGGKLDASSYPLGIKRKDLVKSATGLGLDDITIEKVVSGEIQFDDIKTRPETLAYQNEIAKSVNRPNLANNLARAGEMTRIPDARLLEMYNFLRPYRAAKQEMISMAEELEQKYQAPACAKLVREAADVYEKNNRLKGDR,not soluble
16,MGSDKIHHHHHHMKVNILMSTYNGQEFIAQQIQSIQKQTFENWNLLIRDDGSSDETPKIIADFAKSDARIRFINADKRENFGVIKNFYTLLKYEKADYYFFSDQDDVWQPQKLELTLASVEKENNQIPLMVYTDLTVVDRDLQVLHDSMIKTQSHHANTSLLEELTENTVTGGTMMVNHCLAKQWKQCYDDLIMHDWYLALLAASLGKLIYLDETTELYRQHESNVLGARTWSKRLKNWLRPHRLVKKYWWLVTSSQQQASHLLELDLSAANKAIIQAYVTLLDQSFLNRIKWLKQYGFAKNRAFHTFVFKTLIITKFGYRRK,not soluble
17,MLDKNVLNEIGSKVNEILASSPARDVEKNMRAMLTGAFARLDLVTREEFDVQQEVIKRTRIKLAELEEKVRKLEQQLQQPAEVVSSNETGDA,not soluble
18,GMSPQSMLTSPQHPRRTTMVISHGTLSASAEHAAHLRQLLVHIAQATRQEDGCLLYLVSEDLSQPGHFLITEHWDNLGAMHTHLALPGVTQAIDALKHLNVTDLKITAYEAGEAINIMG,soluble
19,MSNELPWQVWTPDDLAPPPETFVPVEADNVTLTEDTPEPELTAEQQLEQELAQLKIQAHEQGYNAGLAEGRQKGHAQGYQEGLAQGLEQGQAQAQTQQAPIHARMQQLVSEFQNTLDALDSVIASRLMQMALEAARQVIGQTPAVDNSALIKQIQQLLQQEPLFSGKPQLRVHPDDLQRVEEMLGATLSLHGWRLRGDPTLHHGGCKVSADEGDLDASVATRWQELCRLAAPGVL,not soluble
20,MGSDKIHHHHHHMLSNKNKIRKLLNGIETGDPDAALVVNEQKYIQHNPHTKEGNIGLAELFKQIAKTGPRVNMIRVFEDKDFVFAHMEYHFSTLKVAFEVFRFEDGFAVEHWDNMQLMQKVNASGRSMLDGYLITEDHDLTEFNRSRVSLFANEILIKRKLDLLIDFVCDDNFIQHSPLLADGISALRSTLSATSKQKYKITYSKIHRVLAEGNFVLSVSEGLMDEKHCSFYDLYRIEKGKIVEHWDTIEPIPPRTEWKNDNGKF,not soluble
21,SLTVFQPLVPPDWKMNLRDGELYAQVAFSAAPEQGFRAGGHGVLKGGSAWMPDNQVNGVDFVLPFRFADGAWHLGTRGPVTLRIAEVINLVTAKNITADLQGRYPWTEEEPLLLTDVSVDVLGGNVLMKQLRMPQHDPALLRLNNLSSSELVSAVNPKQFAMSGAFSGALPLWLNNEKWIVKDGWLANSGPMTLRLDKDTADAVVKDNMTAGSAINWLRYMEISRSSTKINLDNLGLLTMQANITGTSRVDGKSGTVNLNYHHEENIFTLWRSLRFGDNLQAWLEQ,not soluble
22,STGSKQRSQNRSKTPKNQEALRMANVAENSSSDQRQACKKHELYVSFRDLGWQDWIIAPEGYAAYYCEGECAFPLNSYMNATNHAIVQTLVHFINPETVPKPCCAPTQLNAISVLYFDDSSNVILKKYRNMVVRACGCH,soluble
23,MPIRGFHYRGDEAIYPASVVKLFYLVAALEWLQQGMIQPSAELDRALRDMIVDSSNDATGYIVDLLSGTTSGPELGDGPFKTWQFQRNIVNRYYQSLMWPELQPINVNQKTWGDGPYGRERAFYGPEFENRNKLTTNATARLLHAIAGGVAVSPSASQRMLNLLNRPFDPRSLAEDPENQVTGFLGQDLPQGSQLWSKAGWMSRVRHDAAYLEIPGLPPHLLVAFTEGKEHANNEAILPFIAQQVRQQLQPALEHHHHHH,not soluble
24,MPIRHCIVHLIEKKPDGTPAVLHARDSELAESQAIENMLADLNESYNAKQGKAWGLFHPESGAHPFSGWLKEYLDGGKDFTAFSRVSVEHLQKLMEESNLSVGGHVLFAHYQQGMTDYLAIALLHHSDGVAVNAELDVTPSRHLDLGQLHLAARINISEWQNNKQSKQYISFIKGKNGKKVSEYFRDFIGCQEGVDGPGETRTLLKAFSDFVESEDLPEESAREKTKTLIDYASSQSKMGEPMGLEALSELIDENQPRAFYDHIRNKDYGLSPEIPADKRTLNQFRRFTGRAEGLSISFEAHLLGDKIEYDETAGTLIIKGLPTQLTDQLKRRLEHHHHHH,not soluble
